Experimental data published in publication PMC11828871, “Structural basis of anticancer drug recognition and amino acid transport by LAT1” (Nature Communications, 2025).

Experiments:
[1] = molecular target: T1, LAT1–CD98hc heterodimeric complex (human, UniProt Q01650;P08195); assay: cryo-EM structure; LAT1–CD98hc in lipid nanodiscs (POPC:POPG:cholesterol 2:2:1, MSP2N2) complexed with Fab170, gel filtration; SEC buffer 20 mM Tris-HCl pH 9.0, 150 mM NaCl; with JPH203, L-Phe, melphalan, BCH, T3 or no ligand; conditions: both partners purified
T1 construct: LAT1 (SLC7A5), human; as the chain of m1; CD98hc (4F2hc; SLC3A2), human; as the chain of m2
T1 sequence (Q01650 whole entry, chain 1 of 2): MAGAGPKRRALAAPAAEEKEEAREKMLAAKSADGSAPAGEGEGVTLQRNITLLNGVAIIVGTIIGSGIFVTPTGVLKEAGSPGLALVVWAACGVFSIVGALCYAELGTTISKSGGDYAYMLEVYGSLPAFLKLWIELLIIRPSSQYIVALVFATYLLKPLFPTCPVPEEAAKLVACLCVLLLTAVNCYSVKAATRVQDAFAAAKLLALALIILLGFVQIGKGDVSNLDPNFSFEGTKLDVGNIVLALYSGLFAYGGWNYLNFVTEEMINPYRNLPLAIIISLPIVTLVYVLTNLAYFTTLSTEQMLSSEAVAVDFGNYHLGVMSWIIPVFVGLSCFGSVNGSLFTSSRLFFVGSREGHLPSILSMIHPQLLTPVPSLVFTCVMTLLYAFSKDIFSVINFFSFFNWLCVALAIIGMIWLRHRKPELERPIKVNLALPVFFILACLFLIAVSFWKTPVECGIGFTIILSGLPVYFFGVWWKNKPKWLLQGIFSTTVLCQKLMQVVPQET
T1 sequence (P08195 102-630, chain 2 of 2): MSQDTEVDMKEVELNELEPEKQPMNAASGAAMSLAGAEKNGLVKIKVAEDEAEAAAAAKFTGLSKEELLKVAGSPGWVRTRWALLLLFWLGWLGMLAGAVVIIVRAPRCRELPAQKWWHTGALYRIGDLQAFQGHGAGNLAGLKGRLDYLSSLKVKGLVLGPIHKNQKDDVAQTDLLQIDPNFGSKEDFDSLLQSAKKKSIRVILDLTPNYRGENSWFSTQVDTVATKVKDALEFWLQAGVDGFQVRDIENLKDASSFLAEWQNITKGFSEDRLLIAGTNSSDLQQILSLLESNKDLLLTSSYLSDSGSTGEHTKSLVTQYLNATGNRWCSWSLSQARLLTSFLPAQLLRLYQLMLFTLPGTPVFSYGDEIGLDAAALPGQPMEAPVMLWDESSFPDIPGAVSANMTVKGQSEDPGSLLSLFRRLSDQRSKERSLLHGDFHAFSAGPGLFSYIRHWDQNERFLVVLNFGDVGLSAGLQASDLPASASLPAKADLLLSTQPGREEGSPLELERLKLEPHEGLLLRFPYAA

CD98hc (4F2hc; SLC3A2) = molecular target: T2, CD98hc (4F2hc; SLC3A2) (human, UniProt P08195); assay: as above; conditions: both partners purified
T2 construct: CD98hc (4F2hc; SLC3A2), human, single membrane-spanning protein; The complex was purified by GFP-nanotrap and a FLAG-tag purification step was skipped; The TMD-only models hold only TM1' of CD98hc
T2 sequence (P08195 102-630): as the sequence (P08195 102-630, chain 2 of 2) above

binding result [1]: binds
binding result (CD98hc (4F2hc; SLC3A2)): binds
B1: Fab fragment from clone 170 (Fab170) (Fab, V domains shown)
VH: EVQLQQSGAELVKPGASVNLSCKASGYTFTNYWMHWVRLRPGQGLEWIGEIDPSDSYSYYSQNFKGKATLTVDQSSNTAYLQLTSLTSEDSAVYYCARGRQTYYPWFPYWGQGTLVTVSA
VL: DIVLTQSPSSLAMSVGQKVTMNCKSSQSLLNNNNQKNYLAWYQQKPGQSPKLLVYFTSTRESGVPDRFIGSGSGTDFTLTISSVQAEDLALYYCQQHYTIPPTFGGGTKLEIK
notes: Mouse monoclonal antibody raised against liposomes with purified LAT1–CD98hc; source: mouse hybridoma culture supernatant; IgG purified by Protein G column, digested by papain, Fab further purified on Protein A column
